What follows are sequences tested on Escherichia coli TOP10 (assay: shrunken log2 fold change of peptide-encoding DNA abundance (4.5 h post-induction vs induction); higher = less antimicrobial activity (less host growth inhibition)). Conditions: time post-induction: 4.5 h; library: site-saturation at positions 5, 18, 19, 20.
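Further: peptides expressed intracellularly from a pBAD plasmid library in pooled LB shake-flask culture, induced with 0.3% L-arabinose, DNA abundance read by NGS, three biological replicates, DESeq2 with apeglm shrinkage.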

Sequence | shrunken log2 fold change
RRIRYRPPRLPRPRPRPKALPRP | 0.178
RRIRVRPPRLPRPRPRPEMNPRP | -0.16
RRIRERPPRLPRPRPRPNHEPRP | 0.0522
RRIRVRPPRLPRPRPRPTPSPRP | 0.253
RRIRPRPPRLPRPRPRPHRDPRP | -0.0367
RRIRYRPPRLPRPRPRPQCLPRP | 0.0613
RRIRYRPPRLPRPRPRPCGIPRP | -0.00192
RRIRDRPPRLPRPRPRPHPLPRP | -0.216
RRIRNRPPRLPRPRPRPGVYPRP | -0.241
RRIRLRPPRLPRPRPRPTCPPRP | 0.0694
RRIRQRPPRLPRPRPRPVRYPRP | 0.0926
RRIRPRPPRLPRPRPRPRWIPRP | 0.157
RRIRNRPPRLPRPRPRPNGSPRP | -0.0999
RRIRMRPPRLPRPRPRPCMNPRP | -0.217
RRIRIRPPRLPRPRPRPLECPRP | 0.0303
RRIRVRPPRLPRPRPRPWQKPRP | 0.015
RRIRKRPPRLPRPRPRPFMRPRP | 0.24
RRIRGRPPRLPRPRPRPLANPRP | 0.835
RRIRLRPPRLPRPRPRPPQEPRP | 0.0145
RRIRHRPPRLPRPRPRPNDDPRP | -0.259
RRIRWRPPRLPRPRPRPQCYPRP | -0.252
RRIRHRPPRLPRPRPRPSYNPRP | -0.86
RRIRSRPPRLPRPRPRPCLQPRP | -0.197
RRIRARPPRLPRPRPRPWVWPRP | 0.596
RRIRSRPPRLPRPRPRPGDTPRP | 1.51

Sequence | shrunken log2 fold change
RRIRIRPPRLPRPRPRPRNNPRP | -0.355
RRIRDRPPRLPRPRPRPQKIPRP | 0.0171
RRIRIRPPRLPRPRPRPAHEPRP | 0.215
RRIRKRPPRLPRPRPRPTHDPRP | -0.101
RRIRERPPRLPRPRPRPFWLPRP | 0.463
RRIRRRPPRLPRPRPRPMMPPRP | 0.135
RRIRFRPPRLPRPRPRPPWPPRP | 0.564
RRIRIRPPRLPRPRPRPQPPPRP | -0.0122
RRIRPRPPRLPRPRPRPACYPRP | -0.199
RRIRPRPPRLPRPRPRPYYMPRP | -0.864
RRIRLRPPRLPRPRPRPMRSPRP | 0.0143
RRIRLRPPRLPRPRPRPTLNPRP | -0.0428
RRIRCRPPRLPRPRPRPSQMPRP | -0.278
RRIRTRPPRLPRPRPRPPARPRP | 0.546
RRIRLRPPRLPRPRPRPAKLPRP | -0.0675
RRIRVRPPRLPRPRPRPYCHPRP | -0.0116
RRIRWRPPRLPRPRPRPMGSPRP | -0.0192
RRIRTRPPRLPRPRPRPWEDPRP | 0.0242
RRIRQRPPRLPRPRPRPSYDPRP | -0.251
RRIRKRPPRLPRPRPRPTGVPRP | 0.00874
RRIRKRPPRLPRPRPRPKTDPRP | 0.343
RRIRHRPPRLPRPRPRPQFYPRP | -0.192
RRIRHRPPRLPRPRPRPLFIPRP | -0.68
RRIRKRPPRLPRPRPRPVNAPRP | 0.025
RRIRVRPPRLPRPRPRPWDEPRP | -0.334

Sequence | shrunken log2 fold change
RRIRRRPPRLPRPRPRPCCSPRP | 0.107
RRIRFRPPRLPRPRPRPEKTPRP | -0.00398
RRIRERPPRLPRPRPRPTDVPRP | -0.0755
RRIRTRPPRLPRPRPRPEGCPRP | 0.214
RRIRRRPPRLPRPRPRPGMIPRP | -0.00969
RRIRERPPRLPRPRPRPETEPRP | 0.192
RRIRKRPPRLPRPRPRPRMYPRP | 0.155
RRIRVRPPRLPRPRPRPYDLPRP | -0.121
RRIRWRPPRLPRPRPRPWRIPRP | -0.604
RRIRTRPPRLPRPRPRPNANPRP | -0.0879
RRIRFRPPRLPRPRPRPGNNPRP | -0.276
RRIRDRPPRLPRPRPRPITIPRP | -0.175
RRIRWRPPRLPRPRPRPNEVPRP | 0.0902
RRIRDRPPRLPRPRPRPGCIPRP | -0.158
RRIRQRPPRLPRPRPRPSGRPRP | 0.137
RRIRARPPRLPRPRPRPNQPPRP | 0.0397
RRIRIRPPRLPRPRPRPRCLPRP | -0.228
RRIRNRPPRLPRPRPRPSSPPRP | 0.0179
RRIRIRPPRLPRPRPRPQRKPRP | -0.104
RRIRARPPRLPRPRPRPYRNPRP | -0.222
RRIRKRPPRLPRPRPRPHLYPRP | 0.0535
RRIRCRPPRLPRPRPRPANRPRP | 0.127
RRIRHRPPRLPRPRPRPLQSPRP | -0.0699
RRIRKRPPRLPRPRPRPCHYPRP | -0.117
RRIRIRPPRLPRPRPRPWGYPRP | -0.156

Reference: the supplement of paper PMC9112550, “Optimization of the antimicrobial peptide Bac7 by deep mutational scanning” (BMC Biology, 2022)
